Assay results taken from patent US10918717 (GREEN CROSS, dated 2021).

Target: epidermal growth factor receptor (EGFR) (Homo sapiens (Human), UniProt P00533 25-645, limits assumed)
Experiment: potency 1 binding assay (ELISA); RSM sample #15 (10 mg/ml antibody, 55 mM Na-acetate, pH 6.0, 150 mM NaCl) after storage at 60 C for 1 day, relative to control
Method: (11) Potency 1 (Binding assay): ELISA reader (Spectra Max 190, Molecular Devices) was used for potency 1 analysis.
The prepared samples were subjected to thermal tests, under the storage condition of: (i) 37° C. for two weeks; or (ii) 60° C. for one day.

B1: anti-EGFR antibody GC1118A (antibody, V domains shown)
VH: EVQLVESGGGVVQPGGSLRLSCAASGFTFSDYDMSWIRQAPGKGLEWVSGILGGSERSYYRDSVKGRFTISRDNSRKTLYLQMNSLRAEDTAVYYCARHGSPGYTLYAWDYWGQGTTVTVSS
VL: DIVMTQTPLSLPVTPGEPASISCRSNQDLTHSNGNTYLEWYLQKPGQSPRLLIYKVSNRFSGVPDRFSGSGAGTDFTLRISRVEAEDVGVYYCMQGTHWPWTFGQGTKVDIKR
notes: These may hold only the part of the antibody that was crystallised
  EC50% as compared to a control group: 114 to 121%
